Values of other authors, collected in publication PMC11641302.

Experiments:
Nterm1 [1] = target: Nterm1 (UniProt position 2, ----MPVYMVY)
Nterm1 [2] = target: Nterm1 (UniProt position 2, ----MPLLKFD)

Substance: cis-3-chloroacrylic acid dehalogenase (cis-CaaD) (Coryneform bacterium)
- pKa (Nterm1 [1]): ~9.3

Substance: malonate semialdehyde decarboxylase (MSAD) (Pseudomonas pavonaceae)
- pKa (Nterm1 [2]): ~9.2
